From patent US20250206828A1, “ANTI-ADENOSINE RECEPTOR (A2aR) ANTIBODIES AND THE USE THEREOF” (Adept Therapeutics Inc., priority 2022, published 2025)
Substitutions are numbered along the chain they refer to. In names and notes the source's numbering stands. Like-named read-outs stand apart in the source and are kept apart here.

B1: 3F6-9G5 (antibody, from another filing, V domains shown)
VH: QVQLQQPGTELVKPGAPVRLSCKASGFAFTSYWMNWVRQRPGRGLEWIGRIDPSDSEAHYHHKFWGKATLTVDKSSSTVYIQLNGLTSEDSAVYYCLRSLYGKGDYWGHGTTLTVSS
VL: DVLMTQTPLSLSVRLGDQASISCRSSQSLVHRNGNTYLEWYLQRPGQSPKLLIYKVSNRFSGVPDRFSGSGSGTDFTLKISRVEAEDLGVYYCYQGSHVPLTFGSGTKLEIK
B2: 1B5-3D7 (antibody, from another filing, V domains shown)
VH: QVQLQQPGTELVKPGAPVKLSCKTSGFTFTRFWMNWVRQRPGRGLEWIGRIDPYDSETQYNHKFWDRATLTVDKSSSTVYIQLSSLTSEDSAVYYCGRSLYGKGDYWGQGTTLTVSS
VL: DVLMTQSPLSLPVSLGDQASISCRSSQSIVHSNGNTYLEWYLQRPGQSPKLLIYKVSNRFSGVPDRFSGSGSGTYFTLRISRVEAEDLGIYYCFQGSHVPLTFGSGTTLELK
B3: Hu3F6-H3/Hu3F6-L5 (antibody, human IgG1, V domains shown)
VH: EVQLVQSGAEVKKPGASVKVSCKTSGFAFTSYWMNWVRQAPGQGLEWIGRIDPSDSEAHYHHKFWGRATLTVDTSSSTVYMELSSLRSEDTAVYYCLRSLYGKGDYWGHGTTVTVSS
VL: B1 VL with L3V, R14T, L15P, D17Q, Q18P, R44K, K50Q, L88V, S105G, L109V
notes: Human IgG1 FES (L234F, L235E, P331S) and human Ig kappa constant domains; also called Hu3F6 VH3/VL5; Hu3F6-VH3/VL5
B4: Hu3F6-H5/Hu3F6-L5 (antibody, human IgG1, V domains shown)
VH: B3 VH with H61A, T74K
VL: B1 VL with L3V, R14T, L15P, D17Q, Q18P, R44K, K50Q, L88V, S105G, L109V
notes: Human IgG1 FES (L234F, L235E, P331S) and human Ig kappa constant domains; also called Hu3F6 VH5/VL5; Hu3F6-VH5/VL5

Assays:
[1] = molecular target: cynomolgus adenosine A2A receptor (A2aR) (cynomolgus); experiment: flow cytometry on PBMC, donor Cynomolgus 2
[2] = molecular target: T1, human adenosine A2A receptor (A2aR) (human, UniProt P29274 1-412); experiment: flow cytometry on PBMC, donor human 1
T1 sequence (P29274 whole entry): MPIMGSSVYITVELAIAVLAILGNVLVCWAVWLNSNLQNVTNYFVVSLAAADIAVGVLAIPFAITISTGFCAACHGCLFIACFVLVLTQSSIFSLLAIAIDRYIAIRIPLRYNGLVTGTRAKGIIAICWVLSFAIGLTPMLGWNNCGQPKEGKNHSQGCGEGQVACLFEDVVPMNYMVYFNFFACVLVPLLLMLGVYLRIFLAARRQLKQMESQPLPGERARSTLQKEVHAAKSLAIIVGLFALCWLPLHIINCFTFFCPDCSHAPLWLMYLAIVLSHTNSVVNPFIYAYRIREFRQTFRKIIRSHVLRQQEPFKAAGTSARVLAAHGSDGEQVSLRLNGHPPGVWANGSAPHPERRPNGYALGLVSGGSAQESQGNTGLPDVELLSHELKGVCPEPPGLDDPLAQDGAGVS

[3] = molecular target: T1, human adenosine A2A receptor (A2aR); experiment: flow cytometry titration, HEK293-hA2aR cells, purified antibody, average of 7 repeats
[4] = molecular target: T1, human adenosine A2A receptor (A2aR); experiment: flow cytometry, HEK293-hA2aR cells, supernatant 1 ug/ml, average of triplicate
[5] = molecular target: T1, human adenosine A2A receptor (A2aR); experiment: cell-based or functional assay
[6] = molecular target: T1, human adenosine A2A receptor (A2aR); experiment: flow cytometry on PBMC, donor human 2
[7] = molecular target: cynomolgus adenosine A2A receptor (A2aR) (cynomolgus); experiment: flow cytometry on PBMC, donor Cynomolgus 1
[8] = molecular target: T1, human adenosine A2A receptor (A2aR); experiment: cell-based or functional assay; remark: listed apart in the source
[9] = molecular target: T1, human adenosine A2A receptor (A2aR); experiment: cell-based or functional assay; remark: listed apart in the source
[10] = molecular target: T1, human adenosine A2A receptor (A2aR); experiment: flow cytometry, HEK293-hA2aR cells, supernatant 1 ug/ml
[11] = molecular target: T1, human adenosine A2A receptor (A2aR); experiment: flow cytometry titration, HEK293-hA2aR cells, purified antibody

Row | Binder | % of A2aR+ CD4+ T cells [1] | % of A2aR+ CD8+ T cells [1] | % of A2aR+ NK cells [1] | % of A2aR+ NKT cells [1] | MFI [4] | % of A2aR+ CD4+ T cells [7] | % of A2aR+ CD8+ T cells [7] | % of A2aR+ NK cells [7] | % of A2aR+ NKT cells [7] | IC50 of blocking activity, cAMP-Glo, 1.25 uM NECA, HEK293-hA2aR cells, purified antibody [8] | IC50 of blocking activity, cAMP-Glo, 5 uM Adenosine, HEK293-hA2aR cells, purified antibody [8] | IC50 of blocking activity, cAMP-Glo, 300 nM NECA, HEK293-hA2aR cells, supernatant [9] | MFI [10] | EC50 [11] | other results
1 | B1 | 3.26% | 0.14% | 2.63% | 1.14% | 2040 MFI | 1.36% | 0.06% | 3.34% | 0.85% |  |  |  |  |  | % of A2aR+ CD4+ T cells [2]: 0.67%; % of A2aR+ CD8+ T cells [2]: 0.06%; % of A2aR+ NK cells [2]: 1.15%; % of A2aR+ NKT cells [2]: 0.62%; EC50 [3]: 0.71 nM; IC50 of blocking activity, cAMP-Glo, 300 nM NECA, HEK293-hA2aR cells, supernatant (average of triplicate) [5]: 1.3 nM; IC50 of blocking activity, cAMP-Glo, 1.25 uM NECA, HEK293-hA2aR cells, purified antibody [5]: 0.53 nM; IC50 of blocking activity, cAMP-Glo, 5 uM Adenosine, HEK293-hA2aR cells, purified antibody [5]: 0.93 nM; % of A2aR+ CD4+ T cells [6]: 0.48%; % of A2aR+ CD8+ T cells [6]: 0.03%; % of A2aR+ NK cells [6]: 0.99%; % of A2aR+ NKT cells [6]: 0.47%
2 | B2 |  |  |  |  | 1960 MFI |  |  |  |  |  |  |  |  |  | 
3 | B3 | 1.2% | 0.11% | 2.07% | 0.45% |  | 1.65% | 0.05% | 6.52% | 1.06% | 0.8 nM | 0.6 nM | 5.3 nM | 1900 MFI | 0.57 nM | 
4 | B4 | 10.6% | 0.41% | 2.92% | 4.28% |  | 4.76% | 0.15% | 5.71% | 4.14% | 0.6 nM | 0.8 nM | 0.9 nM | 1850 MFI | 0.59 nM | 
